Laboratory results as given in publication PMC11574045, “A cofactor-induced repressive type of transcription factor condensation can be induced by synthetic peptides to suppress tumorigenesis” (The EMBO Journal, 2024).

test system: HEK293FT cells transfected with TF library; test: Screening of TF condensates based on fluorescent puncta; assay type: cell-based; conditions: Figure 1B numerical data; TF library screen, one value per transcriptional factor
In short: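 HEK293FT, PEI transfection of TF library, 60 h; ±glucose 12 h; 4% PFA fix, 0.05% Triton X-100 permeabilization, 5% BSA block; anti-Flag/anti-GAL4 overnight at 4 °C, Alexa 488 secondary 1 h; high-content imaging, 50 fields/well.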

| Molecule | Z score of condensed fraction |
| --- | --- |
| SMAD7 (protein, UniProt O15105 1-426, looked up) Mothers against …: MFRTKRSALVRRLWRSRAPGGEDEEEGAGGGGGGGELRGEGATDSRAHGAGGGGPGRAGCCLGKAVRGAKGHHHPHPPAAGAGAAGGAEADLKALTHSVLKKLKERQLELLLQAVESRGGTRTACLLLPGRLDCRLGPGAPAGAQPAQPPSSYSLPLLLCKVFRWPDLRHSSEVKRLCCCESYGKINPELVCCNPHHLSRLCELESPPPPYSRYPMDFLKPTADCPDAVPSSAETGGTNYLAPGGLSDSQLLLEPGDRSHWCVVAYWEEKTRVGRLYCVQEPSLDIFYDLPQGNGFCLGQLNSDNKSQLVQKVRSKIGCGIQLTREVDGVWVYNRSSYPIFIKSATLDNPDSRTLLVHKVFPGFSIKAFDYEKAYSLQRPNDHEFMQQPWTGFTVQISFVKGWGQCYTRQFISSCPCWLEVIFNSR | -1.192 |
| SMYD1 (protein, UniProt Q8NB12 1-490, looked up) Histone-lysine …: MTIGRMENVEVFTAEGKGRGLKATKEFWAADIIFAERAYSAVVFDSLVNFVCHTCFKRQEKLHRCGQCKFAHYCDRTCQKDAWLNHKNECSAIKRYGKVPNENIRLAARIMWRVEREGTGLTEGCLVSVDDLQNHVEHFGEEEQKDLRVDVDTFLQYWPPQSQQFSMQYISHIFGVINCNGFTLSDQRGLQAVGVGIFPNLGLVNHDCWPNCTVIFNNGNHEAVKSMFHTQMRIELRALGKISEGEELTVSYIDFLNVSEERKRQLKKQYYFDCTCEHCQKKLKDDLFLGVKDNPKPSQEVVKEMIQFSKDTLEKIDKARSEGLYHEVVKLCRECLEKQEPVFADTNIYMLRMLSIVSEVLSYLQAFEEASFYARRMVDGYMKLYHPNNAQLGMAVMRAGLTNWHAGNIEVGHGMICKAYAILLVTHGPSHPITKDLEAMRVQTEMELRMFRQNEFMYYKMREAALNNQPMQVMAEPSNEPSPALFHKKQ | -0.4905 |
| SNAI2 (protein, UniProt O43623 1-268, looked up) Zinc finger protein SNAI2: MPRSFLVKKHFNASKKPNYSELDTHTVIISPYLYESYSMPVIPQPEILSSGAYSPITVWTTAAPFHAQLPNGLSPLSGYSSSLGRVSPPPPSDTSSKDHSGSESPISDEEERLQSKLSDPHAIEAEKFQCNLCNKTYSTFSGLAKHKQLHCDAQSRKSFSCKYCDKEYVSLGALKMHIRTHTLPCVCKICGKAFSRPWLLQGHIRTHTGEKPFSCPHCNRAFADRSNLRAHLQTHSDVKKYQCKNCSKTFSRMSLLHKHEESGCCVAH | -0.6818 |
| SIX3 (protein, UniProt O95343 1-332, looked up) Homeobox protein SIX3: MVFRSPLDLYSSHFLLPNFADSHHRSILLASSGGGNGAGGGGGAGGGSGGGNGAGGGGAGGAGGGGGGGSRAPPEELSMFQLPTLNFSPEQVASVCETLEETGDIERLGRFLWSLPVAPGACEAINKHESILRARAVVAFHTGNFRDLYHILENHKFTKESHGKLQAMWLEAHYQEAEKLRGRPLGPVDKYRVRKKFPLPRTIWDGEQKTHCFKERTRSLLREWYLQDPYPNPSKKRELAQATGLTPTQVGNWFKNRRQRDRAAAAKNRLQHQAIGPSGMRSLAEPGCPTHGSAESPSTAASPTTSVSSLTERADTGTSILSVTSSDSECDV | -0.646 |
| SMAD4 (protein, UniProt Q13485 1-552, looked up) Mothers against …: MDNMSITNTPTSNDACLSIVHSLMCHRQGGESETFAKRAIESLVKKLKEKKDELDSLITAITTNGAHPSKCVTIQRTLDGRLQVAGRKGFPHVIYARLWRWPDLHKNELKHVKYCQYAFDLKCDSVCVNPYHYERVVSPGIDLSGLTLQSNAPSSMMVKDEYVHDFEGQPSLSTEGHSIQTIQHPPSNRASTETYSTPALLAPSESNATSTANFPNIPVASTSQPASILGGSHSEGLLQIASGPQPGQQQNGFTGQPATYHHNSTTTWTGSRTAPYTPNLPHHQNGHLQHHPPMPPHPGHYWPVHNELAFQPPISNHPAPEYWCSIAYFEMDVQVGETFKVPSSCPIVTVDGYVDPSGGDRFCLGQLSNVHRTEAIERARLHIGKGVQLECKGEGDVWVRCLSDHAVFVQSYYLDREAGRAPGDAVHKIYPSAYIKVFDLRQCHRQMQQQAATAQAAAAAQAAAVAGNIPGPGSVGGIAPAISLSAAAGIGVDDLRRLCILRMSFVKGWGPDYPRQSIKETPCWIEIHLHRALQLLDEVLHTMPIADPQPLD | -0.5517 |
| SMAD3 (protein, UniProt P84022 2-425, looked up) Mothers against …: SSILPFTPPIVKRLLGWKKGEQNGQEEKWCEKAVKSLVKKLKKTGQLDELEKAITTQNVNTKCITIPRSLDGRLQVSHRKGLPHVIYCRLWRWPDLHSHHELRAMELCEFAFNMKKDEVCVNPYHYQRVETPVLPPVLVPRHTEIPAEFPPLDDYSHSIPENTNFPAGIEPQSNIPETPPPGYLSEDGETSDHQMNHSMDAGSPNLSPNPMSPAHNNLDLQPVTYCEPAFWCSISYYELNQRVGETFHASQPSMTVDGFTDPSNSERFCLGLLSNVNRNAAVELTRRHIGRGVRLYYIGGEVFAECLSDSAIFVQSPNCNQRYGWHPATVCKIPPGCNLKIFNNQEFAALLAQSVNQGFEAVYQLTRMCTIRMSFVKGWGAEYRRQTVTSTPCWIELHLNGPLQWLDKVLTQMGSPSIRCSSVS | -0.8472 |
| SIX6 (protein, UniProt Q9QZ28 1-246, looked up) Homeobox protein SIX6: MFQLPILNFSPQQVAGVCETLEESGDVERLGRFLWSLPVAPAACEALNKNESVLRARAIVAFHGGNYRELYHILENHKFTKESHAKLQALWLEAHYQEAEKLRGRPLGPVDKYRVRKKFPLPRTIWDGEQKTHCFKERTRHLLREWYLQDPYPNPSKKRELAQATGLTPTQVGNWFKNRRQRDRAAAAKNRLQQQVLSQGPGRVLRSEGEGTPEVLGVASSPAASLSSKAATSAISITSSDSECDI | 1.297 |
| SMARCAD1 (protein, UniProt Q9H4L7 1-1026, looked up) SWI/SNF-related …: MNLFNLDRFRFEKRNKIEEAPEATPQPSQPGPSSPISLSAEEENAEGEVSRANTPDSDITEKTEDSSVPETPDNERKASISYFKNQRGIQYIDLSSDSEDVVSPNCSNTVQEKTFNKDTVIIVSEPSEDEESQGLPTMARRNDDISELEDLSELEDLKDAKLQTLKELFPQRSDNDLLKLIESTSTMDGAIAAALLMFGDAGGGPRKRKLSSSSEPYEEDEFNDDQSIKKTRLDHGEESNESAESSSNWEKQESIVLKLQKEFPNFDKQELREVLKEHEWMYTEALESLKVFAEDQDMQYVSQSEVPNGKEVSSRSQNYPKNATKTKLKQKFSMKAQNGFNKKRKKNVFNPKRVVEDSEYDSGSDVGSSLDEDYSSGEEVMEDGYKGKILHFLQDASIGELTLIPQCSQKKAQKITELRPFNSWEALFTKMSKTNGLSEDLIWHCKTLIQERDVVIRLMNKCEDISNKLTKQVTMLTGNGGGWNIEQPSILNQSLSLKPYQKVGLNWLALVHKHGLNGILADEMGLGKTIQAIAFLAYLYQEGNNGPHLIVVPASTIDNWLREVNLWCPTLKVLCYYGSQEERKQIRFNIHSRYEDYNVIVTTYNCAISSSDDRSLFRRLKLNYAIFDEGHMLKNMGSIRYQHLMTINANNRLLLTGTPVQNNLLELMSLLNFVMPHMFSSSTSEIRRMFSSKTKSADEQSIYEKERIAHAKQIIKPFILRRVKEEVLKQLPPKKDRIELCAMSEKQEQLYLGLFNRLKKSINNLEKNTEMCNVMMQLRKMANHPLLHRQYYTAEKLKEMSQLMLKEPTHCEANPDLIFEDMEVMTDFELHVLCKQYRHINNFQLDMDLILDSGKFRVLGCILSELKQKGDRVVLFSQFTMMLDILEVLLKHHQHRYLRLDGKTQISERIHLIDEFNTDMDIFVFLLSTKAGGLGINLTSANVVILHDIDCNPYNDKQAEDRCHRVGQTKEVLVIKLISQGTIEESMLKINQQKLKLEQDMTTVDEGDEGSMPADIATLLKTSMGL | -0.654 |
| BCL11B (protein, UniProt Q9C0K0 1-894, looked up) B-cell lymphoma/leukemia 11B: MSRRKQGNPQHLSQRELITPEADHVEAAILEEDEGLEIEEPSGLGLMVGGPDPDLLTCGQCQMNFPLGDILVFIEHKRKQCGGSLGACYDKALDKDSPPPSSRSELRKVSEPVEIGIQVTPDEDDHLLSPTKGICPKQENIAGPCRPAQLPAVAPIAASSHPHSSVITSPLRALGALPPCLPLPCCSARPVSGDGTQGEGQTEAPFGCQCQLSGKDEPSSYICTTCKQPFNSAWFLLQHAQNTHGFRIYLEPGPASSSLTPRLTIPPPLGPEAVAQSPLMNFLGDSNPFNLLRMTGPILRDHPGFGEGRLPGTPPLFSPPPRHHLDPHRLSAEEMGLVAQHPSAFDRVMRLNPMAIDSPAMDFSRRLRELAGNSSTPPPVSPGRGNPMHRLLNPFQPSPKSPFLSTPPLPPMPPGGTPPPQPPAKSKSCEFCGKTFKFQSNLIVHRRSHTGEKPYKCQLCDHACSQASKLKRHMKTHMHKAGSLAGRSDDGLSAASSPEPGTSELAGEGLKAADGDFRHHESDPSLGHEPEEEDEEEEEEEEELLLENESRPESSFSMDSELSRNRENGGGGVPGVPGAGGGAAKALADEKALVLGKVMENVGLGALPQYGELLADKQKRGAFLKRAAGGGDAGDDDDAGGCGDAGAGGAVNGRGGGFAPGTEPFPGLFPRKPAPLPSPGLNSAAKRIKVEKDLELPPAALIPSENVYSQWLVGYAASRHFMKDPFLGFTDARQSPFATSSEHSSENGSLRFSTPPGDLLDGGLSGRSGTASGGSTPHLGGPGPGRPSSKEGRRSDTCEYCGKVFKNCSNLTVHRRSHTGERPYKCELCNYACAQSSKLTRHMKTHGQIGKEVYRCDICQMPFSVYSTLEKHMKKWHGEHLLTNDVKIEQAERS | -0.7987 |
